These results are taken from paper PMC12102759.

B1: NYNRIN peptide 1032-1047 (Protein NYNRIN), 16-mer library wild type / NSP3 UBl1 (ORF1ab Nsp3a Ub1, residues 819-925) (parent)
chain 1: PSLSEEILRALSLHDP
chain 2: APTKVTFGDDTVIEVQGYKSVNITFELDERIDKVLNEKCSAYTVELGTEVNEFACVVADAVIKTLQPVSELLTPLGIDLDEWSMATYYLFDESGEFKLASHMYCSFY
B2: NEK9 peptide 738-753 (Serine/threonine-protein kinase Nek9), 16-mer library wild type / NSP9 (ORF1ab Nsp9, residues 4141-4253) (parent)
chain 1: SGLSIGTVFQSSSPGG
chain 2: NNELSPVALRQMSCAAGTTQTACTDDNALAYYNTTKGGRFVLALLSDLQDLKWARFPKSDGTGTIYTELEPPCRFVTDTPKGPKVKYLYFIKGLNNLNRGMVLGSLAATVRLQ
B3: NEK9 peptide 736-751 (Serine/threonine-protein kinase Nek9), 16-mer library wild type / NSP9 (ORF1ab Nsp9, residues 4141-4253) (parent)
chain 1: NSSGLSIGTVFQSSSP
chain 2: B2 chain 2
B4: NCOA2 peptide 1075-1090 (Nuclear receptor coactivator 2), 16-mer library wild type / NSP3 UBl1 (ORF1ab Nsp3a Ub1, residues 819-925) (parent)
chain 1: DEGALLDQLYLALRNF
chain 2: B1 chain 2

The variants in the first assay derive from B1. To be noted: with NSP3 UBl1 (ORF1ab Nsp3a Ub1, residues 819-925); bait immobilised on MaxiSorp plates (10 µg), library pre-cleared on GST, 2 h binding at 4 °C, five washes; one round per day, days 1-4; value from days 2 and 3; keep out of graded; scale: average fractional NGS count over selection days 2 and 3.
Turning to chain 1 PSLSHEILRALSLHDP [chain 1 E5H], the screen value was found to be 0.

Take chain 1 PSLSMEILRALSLHDP [chain 1 E5M]: the screen value came out at 0.

Consider chain 1 PSASEEILRALSLHDP [chain 1 L3A], for which the screen value came out at 0.

With chain 1 PSLSEEIHRALSLHDP [chain 1 L8H], the screen value turned out to be 0.

Take chain 1 PRLSEEILRALSLHDP [chain 1 S2R]: the screen value worked out at 0.

Consider chain 1 PSLSEEILRALSLHGP [chain 1 D15G], for which the screen value was 0.

In the case of chain 1 PSLSEEILRALSLHKP [chain 1 D15K], the screen value came out at 0.

Turning to chain 1 PSLSEEILRALSLHEP [chain 1 D15E], the screen value amounted to 0.

Regarding chain 1 PSLSEQILRALSLHDP [chain 1 E6Q], the screen value was 2.97e-05.

Regarding chain 1 PSLSEEILRMLSLHDP [chain 1 A10M], the screen value is 0.

With chain 1 PSLSEEILRALSPHDP [chain 1 L13P], the screen value was 0.

With chain 1 PSLSEEILRAHSLHDP [chain 1 L11H], the screen value was 0.

For chain 1 PSLSEEILRALSLFDP [chain 1 H14F], the screen value worked out at 7.34e-06.

chain 1 PSLSEEILRALSLNDP [chain 1 H14N]: the screen value came out at 0.

As to chain 1 PSLSEETLRALSLHDP [chain 1 I7T], the screen value came out at 0.

For the variant chain 1 PSLSEEDLRALSLHDP [chain 1 I7D], the screen value came out at 0.

In a further assay the parent is B2. Particulars: with NSP9 (ORF1ab Nsp9, residues 4141-4253); bait immobilised on MaxiSorp plates (10 µg), library pre-cleared on GST, 2 h binding at 4 °C, five washes; one round per day, days 1-4; value from days 2 and 3; keep out of graded; scale: average fractional NGS count over selection days 2 and 3.
For the variant chain 1 SGWSIGTVFQSSSPGG [chain 1 L3W], the screen value stood at 0.

Regarding chain 1 SGVSIGTVFQSSSPGG [chain 1 L3V], the screen value amounted to 0.000196.

Take chain 1 SGLSIGTVFQSESPGG [chain 1 S12E]: the screen value was determined as 0.

Consider chain 1 SGLSIGTVFQSISPGG [chain 1 S12I], for which the screen value was 0.

Turning to chain 1 SGLSIGTVFQSDSPGG [chain 1 S12D], the screen value amounted to 0.

Take chain 1 SGLSIGTVFQSSVPGG [chain 1 S13V]: the screen value amounted to 0.

Consider chain 1 SGLSIGTVFQSSGPGG [chain 1 S13G], for which the screen value is 0.

Consider chain 1 SGLSIGTVFQSSNPGG [chain 1 S13N], for which the screen value stood at 2.85e-05.

On to chain 1 SGLSIGTVFQSSQPGG [chain 1 S13Q], for which the screen value came out at 0.

For the variant chain 1 SGLWIGTVFQSSSPGG [chain 1 S4W], the screen value amounted to 0.

Consider chain 1 SGLYIGTVFQSSSPGG [chain 1 S4Y], for which the screen value turned out to be 0.

As to chain 1 SGLPIGTVFQSSSPGG [chain 1 S4P], the screen value worked out at 0.

Take chain 1 SGLKIGTVFQSSSPGG [chain 1 S4K]: the screen value stood at 0.

Take chain 1 SGLDIGTVFQSSSPGG [chain 1 S4D]: the screen value came to 0.

Take chain 1 SLLSIGTVFQSSSPGG [chain 1 G2L]: the screen value came out at 0.

Regarding chain 1 SVLSIGTVFQSSSPGG [chain 1 G2V], the screen value is 0.

Regarding chain 1 SILSIGTVFQSSSPGG [chain 1 G2I], the screen value came out at 0.

Consider chain 1 SGLSIGTKFQSSSPGG [chain 1 V8K], for which the screen value amounted to 0.

Regarding chain 1 SGLSIGTQFQSSSPGG [chain 1 V8Q], the screen value turned out to be 0.000101.

As to chain 1 SGLSIGTEFQSSSPGG [chain 1 V8E], the screen value came out at 2.09e-05.

As for chain 1 SGLSIGTGFQSSSPGG [chain 1 V8G], the screen value worked out at 0.

chain 1 SGLSIGTPFQSSSPGG [chain 1 V8P]: the screen value was found to be 0.

chain 1 SGLSIGTDFQSSSPGG [chain 1 V8D]: the screen value stood at 0.000118.

Turning to chain 1 SGLSIGTAFQSSSPGG [chain 1 V8A], the screen value was found to be 3.17e-05.

Take chain 1 SGLSIGTHFQSSSPGG [chain 1 V8H]: the screen value is 0.000119.

In the case of chain 1 SGLSEGTVFQSSSPGG [chain 1 I5E], the screen value was 0.

For the variant chain 1 SGLSIGTVFQSSSRGG [chain 1 P14R], the screen value is 0.

As to chain 1 SGLSIGTVFQSSSTGG [chain 1 P14T], the screen value was found to be 0.

In the case of chain 1 SGLSIGTVFQSSSEGG [chain 1 P14E], the screen value was 2.37e-05.

For the variant chain 1 SGLSIGTVFQNSSPGG [chain 1 S11N], the screen value is 0.

As for chain 1 SGLSIGTVFQASSPGG [chain 1 S11A], the screen value was determined as 0.

With chain 1 SGLSIGTVFQDSSPGG [chain 1 S11D], the screen value amounted to 2.69e-05.

chain 1 SGLSIGTVFQTSSPGG [chain 1 S11T]: the screen value is 0.

With chain 1 EGLSIGTVFQSSSPGG [chain 1 S1E], the screen value amounted to 2.09e-05.

Regarding chain 1 LGLSIGTVFQSSSPGG [chain 1 S1L], the screen value was found to be 0.

Consider chain 1 NGLSIGTVFQSSSPGG [chain 1 S1N], for which the screen value is 0.000364.

Take chain 1 DGLSIGTVFQSSSPGG [chain 1 S1D]: the screen value is 0.000541.

As for chain 1 YGLSIGTVFQSSSPGG [chain 1 S1Y], the screen value amounted to 0.

Regarding chain 1 MGLSIGTVFQSSSPGG [chain 1 S1M], the screen value is 1.76e-05.

With chain 1 HGLSIGTVFQSSSPGG [chain 1 S1H], the screen value worked out at 0.

On to chain 1 SGLSIGTVFQSSSPEG [chain 1 G15E], for which the screen value worked out at 0.

In the case of chain 1 SGLSIGTVFQSSSPWG [chain 1 G15W], the screen value is 0.

Consider chain 1 SGLSIGTVFQSSSPAG [chain 1 G15A], for which the screen value turned out to be 0.

chain 1 SGLSIGTVFQSSSPDG [chain 1 G15D]: the screen value came to 0.

As for chain 1 SGLSIGTVFQSSSPQG [chain 1 G15Q], the screen value turned out to be 4.92e-05.

As to chain 1 SGLSIGTVFQSSSPVG [chain 1 G15V], the screen value amounted to 0.000116.

Take chain 1 SGLSIGTVFQSSSPSG [chain 1 G15S]: the screen value came to 0.

On to chain 1 SGLSIGPVFQSSSPGG [chain 1 T7P], for which the screen value amounted to 0.000499.

In the case of chain 1 SGLSIGDVFQSSSPGG [chain 1 T7D], the screen value stood at 0.

Consider chain 1 SGLSIGQVFQSSSPGG [chain 1 T7Q], for which the screen value is 0.

chain 1 SGLSIGEVFQSSSPGG [chain 1 T7E]: the screen value was 0.000776.

As for chain 1 SGLSIGSVFQSSSPGG [chain 1 T7S], the screen value is 0.

With chain 1 SGLSIGTVFISSSPGG [chain 1 Q10I], the screen value came to 0.

For chain 1 SGLSIGTVFESSSPGG [chain 1 Q10E], the screen value was 0.000217.

Variants of B3 are the subject of a further assay. Particulars: with NSP9 (ORF1ab Nsp9, residues 4141-4253); bait immobilised on MaxiSorp plates (10 µg), library pre-cleared on GST, 2 h binding at 4 °C, five washes; one round per day, days 1-4; value from days 2 and 3; keep out of graded; scale: average fractional NGS count over selection days 2 and 3.
chain 1 NSSGLSIGTVEQSSSP [chain 1 F11E]: the screen value stood at 0.000183.

Regarding chain 1 NSSGLSIGTVRQSSSP [chain 1 F11R], the screen value is 0.

As for chain 1 NSSGLSIGTVGQSSSP [chain 1 F11G], the screen value was 0.000245.

As for chain 1 NSSGLSIGTVPQSSSP [chain 1 F11P], the screen value was found to be 0.0001.

Regarding chain 1 NSSGLSIGTVMQSSSP [chain 1 F11M], the screen value stood at 0.000187.

On to chain 1 NSSGLSIGTVIQSSSP [chain 1 F11I], for which the screen value was determined as 0.000239.

The variants in another assay derive from B4. Particulars: with NSP3 UBl1 (ORF1ab Nsp3a Ub1, residues 819-925); bait immobilised on MaxiSorp plates (10 µg), library pre-cleared on GST, 2 h binding at 4 °C, five washes; one round per day, days 1-4; value from days 2 and 3; keep out of graded; scale: average fractional NGS count over selection days 2 and 3.
Turning to chain 1 DEGLLLDQLYLALRNF [chain 1 A4L], the screen value is 7.15e-06.

Regarding chain 1 DEGYLLDQLYLALRNF [chain 1 A4Y], the screen value was 0.00107.

Regarding chain 1 DEGALLDQLYLWLRNF [chain 1 A12W], the screen value was determined as 0.

For the variant chain 1 DEGALLDQLYLALRIF [chain 1 N15I], the screen value was found to be 2.73e-05.

As for chain 1 DEGALLDQLYLALRHF [chain 1 N15H], the screen value was determined as 5.47e-06.

In the case of chain 1 DEGALLDQLYLALRVF [chain 1 N15V], the screen value was 0.00016.

Turning to chain 1 DEGALLDQLYLALRLF [chain 1 N15L], the screen value came to 0.000158.

chain 1 DEGALLDQLYLALRFF [chain 1 N15F]: the screen value is 0.113.

chain 1 DEGALLDQLYLALRAF [chain 1 N15A]: the screen value amounted to 1.68e-05.

Take chain 1 DEGALLDQTYLALRNF [chain 1 L9T]: the screen value was found to be 0.

chain 1 DEGALLDQIYLALRNF [chain 1 L9I]: the screen value amounted to 7.34e-06.

Regarding chain 1 DEGALLDQVYLALRNF [chain 1 L9V], the screen value stood at 1.9e-05.

As for chain 1 DEGALLDQKYLALRNF [chain 1 L9K], the screen value came out at 0.

As for chain 1 DEGALLDQHYLALRNF [chain 1 L9H], the screen value was found to be 0.

For the variant chain 1 DEGALLDQLYLALKNF [chain 1 R14K], the screen value was found to be 0.

Regarding chain 1 DEGALLDQLYLALNNF [chain 1 R14N], the screen value was 2.08e-05.

Turning to chain 1 DEGALLDQLYLALYNF [chain 1 R14Y], the screen value came to 5.46e-06.

In the case of chain 1 DEGALLDQLYLALFNF [chain 1 R14F], the screen value amounted to 2.17e-05.
